Laboratory results: patent publication USRE48137E1, “Multivalent vaccine protection from Staphylococcus aureus infection” (UNIVERSITY OF MARYLAND, BALTIMORE, priority 2012, dated 2020)

Test system: S. aureus MRSA-M2
Assay: murine tibial implant model of S. aureus infection
Format: in vivo
Conditions: C57BL/6 mice, tibiae CFU at 21 days post-challenge; 12.5 μg per antigen IP at 28 and 14 days prior to challenge
Description: Mice. Inbred C57BL/6 (6-8 weeks old) were purchased from Jackson Laboratories (Bar Harbor, Me.). Mice were maintained under micro-isolator conditions in the animal facility at the University of Maryland Dental School (Baltimore, Md.), in accordance with protocols reviewed and approved by the Institutional Animal Care and Use Committee (IACUC).
Bacterial strain and preparation of infectious inocula. […] Cells were centrifuged, rinsed with PBS, counted via a Petroff Hausser counter, and diluted to 1×10^6 CFU/ml. […]
Bone Cultures. […] In addition, non-vaccinated mice (alum alone) and mice vaccinated with the quadrivalent vaccine, the single additional antigen SA0119, or all antigens combined were euthanized at 21 days post infection and tibial colony-forming units (CFUs) were determined as described above. Dissemination of the S. aureus infection was monitored by homogenizing kidneys and plating the homogenates as described above.
Statistical Analysis. Mean and SD were calculated and analyzed using Student's t-test with a P value of <0.05 to determine statistical significance. Experiments determining the percentage of mice still infected after vancomycin or PBS treatment were analyzed using Fishers Exact test with a p value of <0.05 for statistical significance. […]

B1: SACOL0119 vaccine: planktonic-specific monovalent vaccine; S. aureus polypeptide SA0119, SEQ ID NO:14 (protein, listed as Staphylococcus aureus)
chain: MKKLATVGSLIVTSTLVFSSMPFQNAHADTTSMNVPNKQSQNVQNHRPYGGVVPQGMTQAQYTELEKTLPQLSAGSNMQDYNMKLYDATQNIADKYNVIITTNVGVFKPHAVRDMNGHALPLTKDGNFYQTNVDANGVNHGGSEMVQNKTGHMSQQDHMNQNTHMNQQPQIQQGHMQSSNHQMMSPKANMHSSNHQMNQSNKKVLPAAGESMTSSILTASIAALLLVSGLFLAFRRRSTNK
- bacterial clearance (percent of animals cleared of S. aureus): 40%
